Test results from patent US20260191905A1 (MODERNATX, published 2026).
One block for each binder: values may come before it.

Legend:
[1] = target: T1, human GPC3 recombinant protein (human, UniProt P51654 25-559); test: SPR (Biacore), summary table; Chi2 0.207; Profile 'Very good'
T1 construct: also called huGPC3; Human GPC3 protein
Experimental: (§1) Affinities of the 19 VHH-His tagged domains were then determined by BiaCore assay. Human GPC3 protein (Sino biological cat. nr. 10088-H08H-500) was immobilized on CM5 sensor chip (GE Healthcare) as antigen. Purified VHH-His tagged domains were diluted in BiaCore buffer (0.01 M HEPES pH 7.4, 0.15 M NaCl, 3 mM EDTA, 0.05% P20) to 500 nM and injected over 2 minutes at […] followed by a half dilution series to 7.8 nM. 10 μl of 10 mM NaOH/1M NaCl were injected between samples and then off-rate wash was 5 minutes.

[2] = target: T2, human GPC3 on HepG2 cells (human, UniProt P51654 25-554); test: FACS, phage-displayed clone on HepG2, well E4; same clone on A-431 (no GPC3): 2.08%
T2 construct: whole, on cells

[3] = target: T2, human GPC3 on HepG2 cells; test: FACS, phage-displayed clone on HepG2, well E4; same clone on A-431 (no GPC3): 1163.66
[4] = target: T2, human GPC3 on HepG2 cells; test: FACS, periplasmic extract 1:5 + anti-c-myc + GAM-APC on HepG2, well E4; same on A-431: 0.25%
[5] = target: T2, human GPC3 on HepG2 cells; test: FACS, periplasmic extract 1:5 + anti-c-myc + GAM-APC on HepG2, well E4; same on A-431: 760.97
[6] = target: T1, human GPC3 recombinant protein; test: SPR (Biacore) off-rate screen, periplasmic extract over human GPC3 on CM5; R0 61.6
Experimental: (§2) Human GPC3 protein in acetate buffer, pH 5.0, was immobilized in a sensor chip CM5 (GE Healthcare; Cat. Nr. BR-1005-30; Lot. Nr.10245232) and successful immobilization was confirmed by using a commercially available human GPC3 antibody (R&D cat. nr. MAB2119) and the anti-GPC3-VHH-Fc (both at 10 μg/mL). Periplasmic extracts from the MP were diluted in Biacore Buffer (0.01 M HEPES pH 7.4, 0.15 M NaCl, 3 mM EDTA, 0.05% P20) and injected over 2 minutes at 30 μL/min. 10 μl of 10 mM NaOH/1M NaCl were injected between samples and off-rates were measured over 5 minutes. Off-rate ([…]) were calculated using BIACORE software 1:1 interaction Langmuir binding model.

[7] = target: T1, human GPC3 recombinant protein; test: SPR (Biacore), VHH-His over human GPC3 on CM5; fit 62.5 - 7.8 nM; Rmax 22.5 RU; Chi2 0.207
Experimental: as §1

[8] = target: T2, human GPC3 on HepG2 cells; test: FACS, phage-displayed clone on HepG2, well B4; same clone on A-431 (no GPC3): 1.12%
[9] = target: T2, human GPC3 on HepG2 cells; test: FACS, phage-displayed clone on HepG2, well B4; same clone on A-431 (no GPC3): 1095.02
[10] = target: T2, human GPC3 on HepG2 cells; test: FACS, periplasmic extract 1:5 + anti-c-myc + GAM-APC on HepG2, well B4; same on A-431: 0.54%
[11] = target: T2, human GPC3 on HepG2 cells; test: FACS, periplasmic extract 1:5 + anti-c-myc + GAM-APC on HepG2, well B4; same on A-431: 873.16
[12] = target: T1, human GPC3 recombinant protein; test: SPR (Biacore) off-rate screen, periplasmic extract over human GPC3 on CM5; R0 38.8
Experimental: as §2

[13] = target: T1, human GPC3 recombinant protein; test: SPR (Biacore) off-rate screen, periplasmic extract over human GPC3 on CM5; R0 40.0
Experimental: as §2

[14] = target: T1, human GPC3 recombinant protein; test: SPR (Biacore) off-rate screen, periplasmic extract over human GPC3 on CM5; R0 48.2
Experimental: as §2

[15] = target: T1, human GPC3 recombinant protein; test: SPR (Biacore) off-rate screen, periplasmic extract over human GPC3 on CM5; R0 34.4
Experimental: as §2

[16] = target: T1, human GPC3 recombinant protein; test: SPR (Biacore) off-rate screen, periplasmic extract over human GPC3 on CM5; R0 26.5
Experimental: as §2

[17] = target: T1, human GPC3 recombinant protein; test: SPR (Biacore), summary table; Chi2 0.465; Profile 'Very good'; FIG. 18 prints 6.01E-09
[18] = target: T1, human GPC3 recombinant protein; test: SPR (Biacore), VHH-His over human GPC3 on CM5; fit 197.5 - 17.34 nM; Rmax 10.9 RU; Chi2 0.465
Experimental: as §1

[19] = target: T1, human GPC3 recombinant protein; test: SPR (Biacore), summary table; Chi2 0.266; Profile 'Good'
Experimental: as §1

[20] = target: T2, human GPC3 on HepG2 cells; test: FACS, phage-displayed clone on HepG2, well F3; same clone on A-431 (no GPC3): 1.39%
[21] = target: T2, human GPC3 on HepG2 cells; test: FACS, phage-displayed clone on HepG2, well F3; same clone on A-431 (no GPC3): 1412.11
[22] = target: T2, human GPC3 on HepG2 cells; test: FACS, periplasmic extract 1:5 + anti-c-myc + GAM-APC on HepG2, well F3; same on A-431: 0.18%
[23] = target: T2, human GPC3 on HepG2 cells; test: FACS, periplasmic extract 1:5 + anti-c-myc + GAM-APC on HepG2, well F3; same on A-431: 965.7
[24] = target: T1, human GPC3 recombinant protein; test: SPR (Biacore) off-rate screen, periplasmic extract over human GPC3 on CM5; R0 39.2
Experimental: as §2

[25] = target: T1, human GPC3 recombinant protein; test: SPR (Biacore), VHH-His over human GPC3 on CM5; fit 131.7 - 17.34 nM; Rmax 9.97 RU; Chi2 0.266
Experimental: as §1

[26] = target: T1, human GPC3 recombinant protein; test: SPR (Biacore), summary table; Chi2 0.466; Profile 'Good'
[27] = target: T1, human GPC3 recombinant protein; test: SPR (Biacore) off-rate screen, periplasmic extract over human GPC3 on CM5; R0 46.9
Experimental: as §2

[28] = target: T1, human GPC3 recombinant protein; test: SPR (Biacore), VHH-His over human GPC3 on CM5; fit 197.5 - 17.34 nM; Rmax 10.9 RU; Chi2 0.466
Experimental: as §1

[29] = target: T1, human GPC3 recombinant protein; test: SPR (Biacore) off-rate screen, periplasmic extract over human GPC3 on CM5; R0 36.0
Experimental: as §2

[30] = target: T2, human GPC3 on HepG2 cells; test: FACS, phage-displayed clone on HepG2
Experimental: Binding of phage with surface expressed VHH domains to HepG2 cells was assessed using FACS. […] The cell suspension was distributed throughout at 96-well, U-bottom plate (85 μL/well) and incubated with phage (15 μL) on ice for 60 minutes with shaking.

[31] = target: T1, human GPC3 recombinant protein; test: SPR (Biacore) off-rate screen, periplasmic extract over human GPC3 on CM5; R0 29.7
Experimental: as §2

T1 sequence (P51654 25-559 limits assumed): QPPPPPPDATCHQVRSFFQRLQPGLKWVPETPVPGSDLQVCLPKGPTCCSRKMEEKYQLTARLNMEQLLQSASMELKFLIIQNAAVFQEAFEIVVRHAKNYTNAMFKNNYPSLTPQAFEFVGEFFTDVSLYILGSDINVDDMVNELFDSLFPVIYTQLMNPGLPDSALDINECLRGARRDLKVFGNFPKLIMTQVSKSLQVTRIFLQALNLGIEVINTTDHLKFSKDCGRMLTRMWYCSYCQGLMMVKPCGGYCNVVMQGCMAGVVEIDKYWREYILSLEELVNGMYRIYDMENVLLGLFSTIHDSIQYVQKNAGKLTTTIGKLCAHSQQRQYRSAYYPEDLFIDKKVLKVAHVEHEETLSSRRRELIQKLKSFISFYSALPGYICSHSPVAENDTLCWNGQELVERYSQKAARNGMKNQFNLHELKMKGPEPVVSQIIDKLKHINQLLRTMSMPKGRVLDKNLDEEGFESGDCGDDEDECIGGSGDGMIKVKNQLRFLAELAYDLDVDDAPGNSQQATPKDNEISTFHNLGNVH
T2 sequence (P51654 25-554 limits assumed): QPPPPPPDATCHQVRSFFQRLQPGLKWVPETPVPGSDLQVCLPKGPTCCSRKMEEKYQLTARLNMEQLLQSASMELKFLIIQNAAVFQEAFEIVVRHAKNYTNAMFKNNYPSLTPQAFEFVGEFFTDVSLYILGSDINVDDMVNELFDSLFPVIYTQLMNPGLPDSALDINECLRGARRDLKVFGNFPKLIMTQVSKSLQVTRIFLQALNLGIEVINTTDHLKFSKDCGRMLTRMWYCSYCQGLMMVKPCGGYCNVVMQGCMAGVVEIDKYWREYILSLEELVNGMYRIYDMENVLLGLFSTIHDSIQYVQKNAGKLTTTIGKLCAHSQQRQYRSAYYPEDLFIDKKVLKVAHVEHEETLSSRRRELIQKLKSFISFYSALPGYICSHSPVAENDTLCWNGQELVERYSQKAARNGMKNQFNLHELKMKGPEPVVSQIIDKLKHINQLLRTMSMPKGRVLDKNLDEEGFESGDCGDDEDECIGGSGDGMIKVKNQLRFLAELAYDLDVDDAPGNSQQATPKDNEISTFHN

B2: VH29 (VHH)
VHH: QVQLVESGGGLVQPGGSLRLSCAASGFTFSSYAMSWVRQAPGKEPEWVSSISGGGSSTYYADSLKGRFTISRDNSKNTLYLQMNSLRAEDTAVYYCSRDPRFGEPPFDYWGQGTLVTVSS
notes: also called VHH29
% of Binding [8]: 35.7%
Mean FL2-A [9]: 11100
% of Binding [10]: 1.43%
Mean FL4-A [11]: 931
koff [12]: 0.00493 s⁻¹

B3: VH27 (VHH)
VHH: EVQLVESGGGLVQPGGSLRLSCAASGFTFSSYAMSWVRQAPGKEPEWVSSISGGGSSTYYADSLKGRFTISRDNSKNTLYLQMNSLRAEDTAVYYCSRDPRFGEPPFDYWGQGTLVTVSS
notes: also called VHH27
koff [13]: 0.00387 s⁻¹

B4: VH21 (VHH)
VHH: QVQLVESGGGLVQPGGSLRLSCAASGFTFSSYAMSWVRQAPGKEPEWISSISGSGSSTYYADSLKGRFTISRDNSKNTLYLQMNSLRAEDTAVYYCSKDPRFGEPPFDYWGQGTLVTVSS
notes: also called VHH21
koff [14]: 0.00269 s⁻¹

B6: anti-GPC3 VHH-His tagged domain VHH1 (VHH)
VHH: EVQLVESGGGLVQPGGSLRLSCAASGFTFSSYAMSWVRQAPGKEPEWVSSISGGGTSTYYADSLEGRFTISRDNSKNTLYLQMNSLRAEDTAVYYCSKDPRFGEPPFDYWGQGTTVTVSS
notes: Produced from a mammalian expression vector as a His fusion; not shown: His tag
koff [16]: 0.00247 s⁻¹
Kd [17]: 4.29 nM
Ka [18]: 1.66e+08 M⁻¹
Kd [18]: 6.01 nM
koff [18]: 0.00167 s⁻¹
kon [18]: 278000 M⁻¹ s⁻¹

B7: anti-GPC3 VHH-His tagged domain VHH9 (VHH)
VHH: QVQLVESGGGLVQPGGSLRLSCAASGFTFSSYAMSWVRQAPGKEPEWVSSISGGGSSTYYADSLKGRFTISRDNSKNTLYLQMNSLRAEDTAVYYCSRDPRFGEPPLDYWGQGTTVTVSS
notes: as for B6
Kd [19]: 6.15 nM
% of Binding [20]: 89%
Mean FL2-A [21]: 130000
% of Binding [22]: 0.52%
Mean FL4-A [23]: 1830
koff [24]: 0.0062 s⁻¹
Ka [25]: 1.63e+08 M⁻¹
Kd [25]: 6.15 nM
koff [25]: 0.00326 s⁻¹
kon [25]: 530000 M⁻¹ s⁻¹

B8: anti-GPC3 VHH-His tagged domain VHH7 (VHH)
VHH: EVQLVESGGGLVQPGGSLRLSCAASGFTFSSYAMSWVRQAPGKEPEWVSSISGGGSSTYYADSLKGRFTISRDNSKNTLYLQMNSLRAEDTAVYYCSRDPRFGEPPFDYWGQGTTVTVSS
notes: as for B6
Kd [26]: 6.84 nM
koff [27]: 0.00457 s⁻¹
Ka [28]: 1.46e+08 M⁻¹
Kd [28]: 6.84 nM
koff [28]: 0.00262 s⁻¹
kon [28]: 383000 M⁻¹ s⁻¹

B10: VH32 (VHH)
VHH: QVQLVESGGGLVQPGGSLRLSCAASGFTFSSFAMSWVRQAPGKGLEWVSAISGSGGRTHYADSVKGRFTISRDNSKNTLYLQMNSLRAEDTAVYYCAKEALTGVFDYWGQGTLVTVSS
notes: also called VHH32
binding result [30]: no binding
koff [31]: 0.0948 s⁻¹

Further lines, results first:

Kd [1]: 3.23 nM
% of Binding [2]: 60.1%
Mean FL2-A [3]: 18600
% of Binding [4]: 0.27%
Mean FL4-A [5]: 796
koff [6]: 0.00154 s⁻¹
Ka [7]: 3.09e+08 M⁻¹
Kd [7]: 3.23 nM
koff [7]: 0.00141 s⁻¹
kon [7]: 435000 M⁻¹ s⁻¹
B1: anti-GPC3 VHH-His tagged domain VHH3 (VHH)
VHH: EVQLVESGGGVVQPGRSLRLSCAASGFTFSNYLMQWVRQAPGKGLVWLSNINSDGSSTDYADSVKGRFTISRDNAKNTLYLQMNSLRAEDTAVYYCRVGAFDYWGQGTLVTVSS
notes: as for B6

koff [15]: 0.00379 s⁻¹
B5: VH26 (VHH)
VHH: EVQLVESGGGLVQPGGSLRLSCAASGFTFSSYAMSWVRQAPGKEPEWISSISGSGSSTYYADSLKGRFTISRDNSKNTLYLQMNSLRAEDTAVYYCSKDPRFGEPPFDYWGQGTLVTVSS
notes: also called VHH26

koff [29]: 0.00566 s⁻¹
B9: VH36 (VHH)
VHH: QVQLVESGGGLVQPGGSLRLSCAASGFTFSSYAMSWVRQAPGKEPEWVSSISGGGSSTYYADSLKGRFTISRDNSKNTLYLQMNSLRAEDTAVYYCSRDPRFGEPPFDYWGQGTTVTVSS
notes: also called VHH36
